The values that follow come from US20140051589.

Data set [1] has as its system T1, peptide construct comprising the Abl substrate GEAIYAAPFA (SEQ ID NO:13) with C-terminal FLAG tag.
T1 sequence: GEAIYAAPFADYKDDDDK

In data set [2] the test system is 1,557 peptides that contain no tyrosine residues (3,243-plex peptide construct set).
The subject of data set [3] is peptide construct with HCV polyprotein 8-mer EVVTSTWV (SEQ ID NO:11).
For data set [4], the system named is SEQ ID NO 23.
For data set [5], the system named is SEQ ID NO 22.
Data set [6] concerns peptide construct with HCV polyprotein 8-mer VVCCSMSY (SEQ ID NO:10).
Data set [7] has as its system SEQ ID NO 27.
The subject of data set [8] is SEQ ID NO 29.
The test system of data set [9] is SEQ ID NO 26.
The test system of data set [10] is SEQ ID NO 25.
Data set [11] deals with peptide construct with HCV polyprotein 8-mer MEECSQHL (SEQ ID NO:8).
Data set [12] relates to peptide construct with HCV polyprotein 8-mer EAIYQCCD (SEQ ID NO:12).
The subject of data set [13] is SEQ ID NO 28.
The test system of data set [14] is peptide construct with HCV polyprotein 8-mer TTPCSGSW (SEQ ID NO:9).
Data set [15] deals with SEQ ID NO 24.
Data set [16] has as its system T2, peptide construct with Cortactin 10-mer GHYPAEDSTY (SEQ ID NO:17).
T2 sequence: GHYPAEDSTY

Data set [17] has as its system T3, peptide construct with Cortactin 10-mer QVSSAYQKTV (SEQ ID NO:20).
T3 sequence: QVSSAYQKTV

Data set [18] concerns T4, peptide construct with Cortactin 10-mer GLAYATEAVY (SEQ ID NO:16).
T4 sequence: GLAYATEAVY

Data set [19] deals with T5, peptide construct with Cortactin 10-mer VYSMEAADYR (SEQ ID NO:19).
T5 sequence: VYSMEAADYR

Data set [20] relates to T6, peptide construct with Cortactin 10-mer GTEPEPVYSM (SEQ ID NO:18).
T6 sequence: GTEPEPVYSM

The subject of data set [21] is T7, peptide construct comprising the thrombin substrate GLVPRGSAG (SEQ ID NO:1).
T7 sequence: CAGLVPRGSAG

Data set [22] concerns T8, peptide construct comprising the enterokinase substrate AGDDDDKAG (SEQ ID NO:2).
T8 sequence: CAAGDDDDKAG

For data set [23], the system named is peptides containing thrombin cleavage sites (whole yeast peptide construct set from S. cerevisiae genomic DNA).

As for ABL1 tyrosine kinase, in data set [1], the “relative qPCR signal {2^[Ct(untreated)-Ct(test)]} after biotin labelling of phosphotyrosine and capture on streptavidin beads” value is listed as “The qPCR signal was ~2-fold higher for the kinase-treated preparation, relative to the untreated preparation”; the “relative qPCR signal {2^[Ct(untreated)-Ct(test)]} after capture on anti-phosphotyrosine antibody beads” value was “The qPCR signal was significantly higher (~120-fold) for the kinase-treated preparation, relative to the untreated preparation”. Further, the “phosphorylation, capture on anti-phosphotyrosine beads and sequencing counts” value in data set [2] is listed as “None of the 1557 negative peptides were detected in the assays”.

As for “NS3 (hepacivirin) protease of hepatitis C virus”, the “protease cleavage, release from beads and sequencing counts” value (“protease cleavage, release” below) in data set [3] is “the undetected site, EVVTSTWV (SEQ ID NO:11), is known to be cleaved only in cis”; in data set [4] it was “map of peptide cleavage sites identified by assaying overlapping 8-mer peptides of HCV polyprotein (SEQ ID NOS:22, 23, 24, 25, 8, 26, 9, 27, 10, 28, 12, and 29”; in [5], “map of peptide cleavage sites identified by assaying overlapping 8-mer peptides of HCV polyprotein (SEQ ID NOS:22, 23, 24, 25, 8, 26, 9, 27, 10, 28, 12, and 29”; in data set [6] it was “cleavage of 3 of the 4 known sites published in the MEROPS database was detected”; in data set [7], “map of peptide cleavage sites identified by assaying overlapping 8-mer peptides of HCV polyprotein (SEQ ID NOS:22, 23, 24, 25, 8, 26, 9, 27, 10, 28, 12, and 29”; in [8] it was “map of peptide cleavage sites identified by assaying overlapping 8-mer peptides of HCV polyprotein (SEQ ID NOS:22, 23, 24, 25, 8, 26, 9, 27, 10, 28, 12, and 29”. Also, the “protease cleavage, release” value in data set [9] was “map of peptide cleavage sites identified by assaying overlapping 8-mer peptides of HCV polyprotein (SEQ ID NOS:22, 23, 24, 25, 8, 26, 9, 27, 10, 28, 12, and 29”; in data set [10] it was “map of peptide cleavage sites identified by assaying overlapping 8-mer peptides of HCV polyprotein (SEQ ID NOS:22, 23, 24, 25, 8, 26, 9, 27, 10, 28, 12, and 29”; in [11] it was “cleavage of 3 of the 4 known sites published in the MEROPS database was detected”; in data set [12], “Peptide EAIYQCCD (SEQ ID NO:12) represents a peptide substrate that does not fit the known HCV NS3 protease consensus”; in data set [13], “map of peptide cleavage sites identified by assaying overlapping 8-mer peptides of HCV polyprotein (SEQ ID NOS:22, 23, 24, 25, 8, 26, 9, 27, 10, 28, 12, and 29”; in [14], “cleavage of 3 of the 4 known sites published in the MEROPS database was detected”. Moreover, the “protease cleavage, release” value in data set [15] was “map of peptide cleavage sites identified by assaying overlapping 8-mer peptides of HCV polyprotein (SEQ ID NOS:22, 23, 24, 25, 8, 26, 9, 27, 10, 28, 12, and 29”.

Turning to SRC tyrosine kinase, the “phosphorylation, capture on anti-phosphotyrosine beads and sequencing counts” value is “Two of the three Src phosphorylation sites (GLAYATEAVY (SEQ ID NO: 16) and GHYPAEDSTY (SEQ ID NO: 17)) were detected” in data set [16]; “None of the 1557 negative peptides were detected in the assays” in data set [2]; “the third known site that was not detected (QVSSAYQKTV (SEQ ID NO: 20))” in data set [17]; “Two of the three Src phosphorylation sites (GLAYATEAVY (SEQ ID NO: 16) and GHYPAEDSTY (SEQ ID NO: 17)) were detected” in [18]; “Two more sites were identified (GTEPEPVYSM (SEQ ID NO: 18) and VYSMEAADYR (SEQ ID NO: 19))” in [19]; “Two more sites were identified (GTEPEPVYSM (SEQ ID NO: 18) and VYSMEAADYR (SEQ ID NO: 19))” in [20].

For enterokinase, the “protease cleavage, PAGE of reaction products” value in data set [21] is listed as “neither the control nor the peptide construct comprising the thrombin substrate were cleaved”; in data set [22], “When treated with enterokinase, the peptide construct comprising the enterokinase substrate was cleaved”.

For the substance thrombin, the “protease cleavage, PAGE of reaction products” value is “then treated with thrombin, the peptide construct comprising the thrombin substrate was cleaved” in [21] and “neither the control nor the peptide construct comprising the enterokinase substrate was cleaved” in data set [22]. Besides, the “protease cleavage, sequence analysis of released constructs” value in data set [23] is “Sequence analysis demonstrated a significant enrichment of peptides containing thrombin cleavage sites”.
